By IC50 is commonly meant the concentration at which inhibition is half-maximal.

In assay [1] the target is C-X-C chemokine receptor type 4 (CXCR4), endogenous on SupT1 cells (human (endogenous in SupT1)) (UniProt P61073).
Assay [2] addresses CXCR4 N-terminally fused to Nanoluciferase (UniProt P61073). As to the kind of experiment: FRET or BRET; NanoBRET ligand binding competition; HEK293T cells stably expressing the receptor N-terminally fused to Nanoluciferase; increasing concentrations of ligands with 10 nM CXCL12-AZ568; 2 h on ice. Background: Bioluminescence resonance energy transfer reports proximity on the nanometre scale.

Assay [3] deals with ACKR3-LgBiT (UniProt P25106).
Assay [4] deals with CXCR4-LgBiT (UniProt P61073).
Assay [5] deals with T1, CXCR4 N-terminally fused to Nanoluciferase (UniProt P61073 1-352).
T1 construct: also called CXCR4 fused to a Nanoluciferase
Kind of assay: FRET or BRET; NanoBRET ligand binding competition; HEK293T cells stably expressing the receptor N-terminally fused to Nanoluciferase; increasing concentrations of ligands with 10 nM CXCL12-AZ568; 2 h on ice. Particulars: one partner purified.

Assay [6] has as its target T2, C-X-C chemokine receptor type 4 (CXCR4), endogenous on SupT1 cells (human (endogenous in SupT1), UniProt P61073 1-352). Kind of assay: flow cytometry on cells; competition with APC-conjugated anti-human CXCR4 antibody clone 12G5 (ECL-2) on 5 x 10^4 SupT1 cells; compounds serially diluted in cold PBS; 90 min at 4 °C; MFI normalized to full stain (100%) and unstained (0%). The settings on record: one partner purified. (In general: A flow cytometer gives signals particle by particle.)

In assay [7] the target is T2, C-X-C chemokine receptor type 4 …. As to the kind of experiment: flow cytometry on cells; competition with PE-conjugated anti-human CXCR4 antibody clone 1D9 (N-terminus) on 5 x 10^4 SupT1 cells; compounds serially diluted in cold PBS; 90 min at 4 °C; MFI normalized to full stain (100%) and unstained (0%). The settings on record: one partner purified.

In assay [1], “C-X-C motif chemokine ligand 12 (CXCL12), unlabelled (from UniProt P48061 22-93)” had an inhibition of CXCR4-tropic HIV-1 infection of TZM-bl reporter cells of 47.9 nM. Also, in assay [2], the IC50 was determined as 36.7 nM. The molecule further gave a β-arrestin-2 recruitment to ACKR3 (NanoBiT, HEK293T) in assay [3] of 30 nM. In assay [4], this molecule showed a β-arrestin-2 recruitment to CXCR4 (NanoBiT, HEK293T) of 30 nM.

B1: G protein-coupled receptor 15 ligand (GPR15LG) (ligand, UniProt Q6UWK7 25-81, looked up)
chain: KRRPAKAWSGRRTRLCCHRVPSPNSTNLKGHHVRLCKPCKLEPEPRLWVVPGALPQV
notes: also called C10orf99; AP-57
B1: the IC50 in assay [5] is 829 ± 139 nM; in assay [6] it was 1300 ± 100 nM; in assay [7] it was about 12.1 µM.

For the origin of these results see paper PMC12093852 (Cell Communication and Signaling : CCS, 2025).
